Results on 1 molecule are retold here after publication PMC9828637, “Pol32, an accessory subunit of DNA polymerase delta, plays an essential role in genome stability and pathogenesis of Candida albicans” (Gut Microbes, 2023).

The target in the assay is T1, CaPol32 (wild type, GST tag cleaved) (C. albicans, UniProt A0A1D8PDM8 1-403).
T1 construct: Pol32, smallest subunit of DNA polymerase delta, C. albicans SC5314; ORF amplified from genomic DNA with primers NAP39 (start codon) and NAP40 (stop codon); length 403 aa, 46.0 kDa; source: S. cerevisiae protease deficient strain, purified (glutathione-Sepharose 4B, GST cleaved with PreScission protease); not shown: GST, N-terminal, cleaved
T1 sequence (looked up): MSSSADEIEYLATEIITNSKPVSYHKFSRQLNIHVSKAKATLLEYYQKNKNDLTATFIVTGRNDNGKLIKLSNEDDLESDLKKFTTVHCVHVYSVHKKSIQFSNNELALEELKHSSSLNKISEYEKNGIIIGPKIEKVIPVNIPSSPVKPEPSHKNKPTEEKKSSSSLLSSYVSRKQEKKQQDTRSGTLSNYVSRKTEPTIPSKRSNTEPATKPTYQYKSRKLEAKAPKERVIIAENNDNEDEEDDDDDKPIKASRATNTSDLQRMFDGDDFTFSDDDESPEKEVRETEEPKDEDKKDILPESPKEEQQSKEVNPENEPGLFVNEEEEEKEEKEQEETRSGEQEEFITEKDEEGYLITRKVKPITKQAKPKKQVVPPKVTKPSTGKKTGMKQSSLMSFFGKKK
The assay is described as follows: ITC; MicroCal PEAQ-ITC, 25°C, 20 mM HEPES pH 7.4, 150 mM NaCl; 20 μM CaPol32 or CaPol32 (F398A, F399A) in the cell, 250 μM CaPCNA in the syringe, 25 injections of 1.5 μl; one-site binding model. Particulars: both partners purified.

B1: CaPCNA (natural protein, C. albicans, UniProt Q5AMN0 1-259, looked up)
chain: MLEGKFEEAALLKKVVEAIKDCVKKCNFNCSEHGITVQAVDDSRVLLVSLLIGQTSFSEYRCDRDVTLGIDLESFSKIIKSANNEDFLTLLAEDSPDQIMAILEEKQKEKISEYSLKLMDIDSEFLQIDDMEYDAVVNMPSSDFAKLVRDLKNLSESLRVVVTKDSVKFTSEGDSGSGSVILKPYTNLKNERESVTISLDDPVDLTFGLKYLNDIVKAATLSDVITIKLADKTPALFEFKMQSGGYLRFYLAPKFDDDE
notes: PCNA (proliferating cell nuclear antigen, DNA sliding clamp), C. albicans; it calls PCNA trimeric without measuring this here; also called proliferating cell nuclear antigen of C. albicans; source: E. coli BL21 DE3, purified (glutathione-Sepharose 4B, GST cleaved with PreScission protease)
As to B1, the Kd (in general, the equilibrium constant for the complex coming apart) is approximately 6.75 µM; the dH is approximately -27 kcal/mol; the stoichiometry N – broadly, a count of units in the complex or per binding partner – worked out at 1 CaPol32 per PCNA trimer.
